B1: Tyrosine-protein phosphatase non-receptor type 3 (Homo sapiens), P26045 (parent)
chain: MTSRLRALGGRINNIRTSELPKEKTRSEVICSIHFLDGVVQTFKVTKQDTGQVLLDMVHNHLGVTEKEYFGLQHDDDSVDSPRWLEASKAIRKQLKGGFPCTLHFRVRFFIPDPNTLQQEQTRHLYFLQLKMDICEGRLTCPLNSAVVLASYAVQSHFGDYNSSIHHPGYLSDSHFIPDQNEDFLTKVESLHEQHSGLKQSEAESCYINIARTLDFYGVELHSGRDLHNLDLMIGIASAGVAVYRKYICTSFYPWVNILKISFKRKKFFIHQRQKQAESREHIVAFNMLNYRSCKNLWKSCVEHHTFFQAKKLLPQEKNVLSQYWTMGSRNTKKSVNNQYCKKVIGGMVWNPAMRRSLSVEHLETKSLPSRSPPITPNWRSPRLRHEIRKPRHSSADNLANEMTYITETEDVFYTYKGSLAPQDSDSEVSQNRSPHQESLSENNPAQSYLTQKSSSSVSPSSNAPGSCSPDGVDQQLLDDFHRVTKGGSTEDASQYYCDKNDNGDSYLVLIRITPDEDGKFGFNLKGGVDQKMPLVVSRINPESPADTCIPKLNEGDQIVLINGRDISEHTHDQVVMFIKASRESHSRELALVIRRRAVRSFADFKSEDELNQLFPEAIFPMCPEGGDTLEGSMAQLKKGLESGTVLIQFEQLYRKKPGLAITFAKLPQNLDKNRYKDVLPYDTTRVLLQGNEDYINASYVNMEIPAANLVNKYIATQGPLPHTCAQFWQVVWDQKLSLIVMLTTLTERGRTKCHQYWPDPPDVMNHGGFHIQCQSEDCTIAYVSREMLVTNTQTGEEHTVTHLQYVAWPDHGVPDDSSDFLEFVNYVRSLRVDSEPVLVHCSAGIGRTGVLVTMETAMCLTERNLPIYPLDIVRKMRDQRAMMVQTSSQYKFVCEAILRVYEEGLVQMLDPS

Variants of: B1
Details: with tera_human VCP

effect of a mutation on the interaction	Variant
increasing interaction	Y676F;D811A

Variants of: B1
Details: with tera_mouse Vcp

effect of a mutation on the interaction	Variant
increasing interaction	Y676F;D811A

Variants of: B1
Details: with tera_human VCP
Remark: another data set of the same source

effect of a mutation on the interaction	Variant
increasing interaction	D811A

— IntAct's records for PubMed 10364224
